{"source": "paper PMC9581978", "about": "“The iron-sulfur cluster is essential for DNA binding by human DNA polymerase ε”", "binders": {"B1": {"name": "Octet 23-mer template / 11-mer 3'-ddC primer (dsDNA)", "DNA 1": "AATACATAAGCGCTCCAGGCAAT", "DNA 2": "GCCTGGAGCGC", "modifications": "3'-dideoxycytidine on primer (strand 2)"}, "B2": {"name": "15-mer Cy3 primer alone (ssDNA)", "DNA": "GGACTCCGAGCTGCC"}}, "key": {"[1]": {"target": "hPolεCD (E. coli), catalytic domain of DNA polymerase ε p261, CysX [4Fe-4S] cluster (63% iron) (human, UniProt Q07864 28-1194)", "sequence (Q07864 28-1194)": "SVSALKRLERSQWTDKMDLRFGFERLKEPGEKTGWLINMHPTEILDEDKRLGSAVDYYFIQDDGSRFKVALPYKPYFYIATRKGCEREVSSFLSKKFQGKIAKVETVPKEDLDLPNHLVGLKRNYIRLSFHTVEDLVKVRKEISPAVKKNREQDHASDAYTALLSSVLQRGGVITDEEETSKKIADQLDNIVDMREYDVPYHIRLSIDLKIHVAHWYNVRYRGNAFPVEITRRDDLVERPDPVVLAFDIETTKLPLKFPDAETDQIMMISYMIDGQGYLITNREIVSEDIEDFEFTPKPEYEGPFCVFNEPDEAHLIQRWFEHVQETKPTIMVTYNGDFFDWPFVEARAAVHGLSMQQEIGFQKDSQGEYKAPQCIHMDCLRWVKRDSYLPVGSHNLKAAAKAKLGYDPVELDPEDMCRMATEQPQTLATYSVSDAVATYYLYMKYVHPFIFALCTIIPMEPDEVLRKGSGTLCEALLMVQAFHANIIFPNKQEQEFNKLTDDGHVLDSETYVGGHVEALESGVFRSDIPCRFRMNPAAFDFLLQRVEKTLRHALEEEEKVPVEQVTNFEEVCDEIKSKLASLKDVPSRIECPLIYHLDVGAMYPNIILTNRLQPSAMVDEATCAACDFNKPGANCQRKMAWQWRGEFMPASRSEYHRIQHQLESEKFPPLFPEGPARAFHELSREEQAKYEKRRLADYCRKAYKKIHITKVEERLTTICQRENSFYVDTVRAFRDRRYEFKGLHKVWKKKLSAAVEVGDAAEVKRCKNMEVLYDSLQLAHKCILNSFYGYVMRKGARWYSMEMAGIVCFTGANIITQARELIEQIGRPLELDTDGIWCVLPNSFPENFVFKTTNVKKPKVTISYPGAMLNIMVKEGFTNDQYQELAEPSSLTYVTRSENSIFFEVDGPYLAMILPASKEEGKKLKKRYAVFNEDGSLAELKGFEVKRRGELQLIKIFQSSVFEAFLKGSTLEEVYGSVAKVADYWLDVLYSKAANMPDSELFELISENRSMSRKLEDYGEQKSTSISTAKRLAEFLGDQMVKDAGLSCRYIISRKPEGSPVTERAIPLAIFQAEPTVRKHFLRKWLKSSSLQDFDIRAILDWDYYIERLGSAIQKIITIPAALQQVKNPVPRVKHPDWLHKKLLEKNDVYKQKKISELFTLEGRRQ", "assay": "BLI; 100 mM NaCl; active enzyme concentration; kon 252 mM-1 s-1, koff 41.9e-3 s-1; EMSA: 20 mM Tris-Hepes pH 7.8, 100 mM NaCl, 2% glycerol, 2 mM TCEP, 0.2 mg/mL BSA, 0.5 uM DNA, 5 min room temperature; BLI: 30 mM Tris-Hepes pH 7.8, 100 or 150", "conditions": "protein: recombinant; tags: N-terminal His-Sumo, His-tag digested during purification; label: 5'-biotin-TEG on template (strand 1); template 5' overhang 9 nt, 3' overhang 3 nt; primer annealed at 2-fold excess"}, "[2]": {"target": "hPolεCD (insect), catalytic domain of DNA polymerase ε p261, iron-poor (7.3% iron) (human, UniProt Q07864 28-1194)", "sequence (Q07864 28-1194)": "as above", "assay": "BLI; 100 mM NaCl; active enzyme concentration; kon 162 mM-1 s-1, koff 34.2e-3 s-1; EMSA: 20 mM Tris-Hepes pH 7.8, 100 mM NaCl, 2% glycerol, 2 mM TCEP, 0.2 mg/mL BSA, 0.5 uM DNA, 5 min room temperature; BLI: 30 mM Tris-Hepes pH 7.8, 100 or 150", "conditions": "protein: recombinant; tags: cleavable N-terminal His-Tev, digested during purification; label: 5'-biotin-TEG on template (strand 1); template 5' overhang 9 nt, 3' overhang 3 nt; primer annealed at 2-fold excess"}, "[3]": {"target": "hPolεCDM (C654S/C663S), [4Fe-4S]-deficient (human, UniProt Q07864 28-1194, C654S;C663S)", "sequence (Q07864 28-1194 C654S/C663S)": "as the sequence (Q07864 28-1194) above, with C627S, C636S counted along it", "assay": "EMSA; no mobility effect at 4-fold molar excess over DNA; EMSA: 20 mM Tris-Hepes pH 7.8, 100 mM NaCl, 2% glycerol, 2 mM TCEP, 0.2 mg/mL BSA, 0.5 uM DNA, 5 min room temperature; BLI: 30 mM Tris-Hepes pH 7.8, 100 or 150", "conditions": "protein: recombinant; tags: N-terminal His-Sumo, His-tag digested during purification; label: 5'-Cy3; single strand"}}}
{"binder": "B1", "values": [{"measurement": "Kd", "setting": "[1]", "value": "167 ± 24", "unit": "nM"}, {"measurement": "Kd", "setting": "[2]", "value": "213 ± 43", "unit": "nM"}]}
{"binder": "B2", "values": [{"measurement": "binding result", "setting": "[3]", "value": "no binding"}]}
